Test results reported in US20120231013A1.
“And” between values parts separate entries of the source, which are not always exact repeats. Equal entries are not always repeated.

What was measured:
[1] = biological target: recombinant TIMP-3 (human or mouse; Table 2 does not say which); assay: binding ELISA, Assay 1
[2] = biological target: recombinant TIMP-3 (human or mouse; Table 2 does not say which); assay: binding ELISA, Assay 3
[3] = biological target: recombinant TIMP-3 (human or mouse; Table 2 does not say which); assay: AlphaScreen, biotinylated TIMP-3, Assay 2
[4] = biological target: recombinant TIMP-3 (human or mouse; Table 2 does not say which); assay: AlphaScreen, biotinylated TIMP-3, Assay 1
[5] = biological target: recombinant TIMP-3 (human or mouse; Table 2 does not say which); assay: binding ELISA, Assay 2
MMP-13 = MMP-13 (UniProt P45452); assay: cell-based or functional assay
[6] = biological target: recombinant human TIMP-3 (human) (UniProt P35625); assay: cell-based or functional assay
Sequence of recombinant human TIMP-3 (human) (P35625 24-211 limits assumed): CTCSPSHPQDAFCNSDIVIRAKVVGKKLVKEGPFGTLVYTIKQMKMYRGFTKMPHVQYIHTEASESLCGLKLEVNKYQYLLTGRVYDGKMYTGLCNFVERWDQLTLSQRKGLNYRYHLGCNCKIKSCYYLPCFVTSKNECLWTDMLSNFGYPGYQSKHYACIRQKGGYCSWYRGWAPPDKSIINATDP

[7] = biological target: recombinant human TIMP-3 (human) (UniProt P35625); assay: direct ELISA, coated huTIMP-3
[8] = biological target: recombinant mouse TIMP-3 (mouse) (UniProt P39876); assay: direct ELISA, coated muTIMP-3
Sequence of recombinant mouse TIMP-3 (mouse) (P39876 24-211 limits assumed): as the sequence (P35625 24-211 limits assumed) above, with T51S, D87E, Q103H, I183S counted along it

[9] = biological target: recombinant human TIMP-3 (human) (UniProt P35625); assay: indirect ELISA, huTIMP-3 captured by anti-TIMP-3 clone 277128

Sequence of LRP-1 Cluster II (C II) (peptide) (chain): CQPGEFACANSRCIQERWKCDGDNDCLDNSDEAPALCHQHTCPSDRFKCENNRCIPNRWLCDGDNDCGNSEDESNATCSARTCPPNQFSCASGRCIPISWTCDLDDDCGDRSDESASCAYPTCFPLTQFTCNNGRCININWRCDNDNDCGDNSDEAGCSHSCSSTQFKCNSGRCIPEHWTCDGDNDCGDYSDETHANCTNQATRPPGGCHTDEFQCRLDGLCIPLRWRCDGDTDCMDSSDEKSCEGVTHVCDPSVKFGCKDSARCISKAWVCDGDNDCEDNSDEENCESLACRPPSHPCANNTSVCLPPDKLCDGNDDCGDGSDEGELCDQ
Sequence of recombinant TIMP-3 (human or mouse; Table 2 does not say which) (P35625 24-211): as the sequence (P35625 24-211 limits assumed) above
Sequence of LRP-1 peptide LA13-15 (chain): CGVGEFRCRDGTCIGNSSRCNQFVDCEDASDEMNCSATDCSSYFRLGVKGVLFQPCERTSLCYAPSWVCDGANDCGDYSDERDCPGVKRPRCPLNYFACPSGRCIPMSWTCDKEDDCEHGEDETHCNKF

| Substance | EC50 [1] | total signal (cps) [3] | total signal (cps) [4] | Direct Inhibition of MMP13 (% decrease), 1000 nM (MMP-13) | also measured |
| --- | --- | --- | --- | --- | --- |
| LRP-1 Cluster II (C II) (peptide) | 45.5 nM | 100000 cps | – | – | EC50 [2]: 32.5 nM |
| LRP-1 peptide LA3 | – | 2000 cps | 2200 cps | – | – |
| LRP-1 peptide LA4-5 | – | 2000 cps | 2200 cps | – | EC50 [5]: 2000 nM |
| LRP-1 peptide LA8 | – | 2000 cps | – | 49% | EC50 [2]: 396 nM; % of the inhibitory activity of TIMP-3 + peptide compared to TIMP-3 alone, 16 nM [6]: 101%; % of the inhibitory activity of TIMP-3 + peptide compared to TIMP-3 alone, 80 nM [6]: 71%; % of the inhibitory activity of TIMP-3 + peptide compared to TIMP-3 alone, 400 nM [6]: 74%; % of the inhibitory activity of TIMP-3 + peptide compared to TIMP-3 alone, 2000 nM [6]: 107%; EC50 [7]: 292 nM; EC50 [8]: 255 nM; EC50 [9]: 198 nM |
| LRP-1 peptide LA9 | – | 2000 cps | – | 41% | EC50 [2]: 1500 nM; % of the inhibitory activity of TIMP-3 + peptide compared to TIMP-3 alone, 16 nM [6]: 104%; % of the inhibitory activity of TIMP-3 + peptide compared to TIMP-3 alone, 80 nM [6]: 104%; % of the inhibitory activity of TIMP-3 + peptide compared to TIMP-3 alone, 400 nM [6]: 105%; % of the inhibitory activity of TIMP-3 + peptide compared to TIMP-3 alone, 2000 nM [6]: 107% |
| LRP-1 peptide LA9-10 | – | 2000 cps | – | 34% | EC50 [2]: 3000 nM; % of the inhibitory activity of TIMP-3 + peptide compared to TIMP-3 alone, 16 nM [6]: 105%; % of the inhibitory activity of TIMP-3 + peptide compared to TIMP-3 alone, 80 nM [6]: 107%; % of the inhibitory activity of TIMP-3 + peptide compared to TIMP-3 alone, 400 nM [6]: 105%; % of the inhibitory activity of TIMP-3 + peptide compared to TIMP-3 alone, 2000 nM [6]: 107% |
| LRP-1 peptide LA13-15 | – | – | 1200 cps | – | – |
| LRP-1 peptide LA16 | – | – | 2200 cps | – | – |
| LRP-1 peptide LA18 | – | – | 2200 cps | – | – |
| LRP-1 peptide LA18-20 | 300 nM | – | 3000 cps | – | – |
| LRP-1 peptide LA19 | – | – | 2200 cps | – | – |
| LRP-1 peptide LA21-23 | 243 nM | – | 3000 cps | – | – |
| LRP-1 peptide LA27 | – | – | 2200 cps | – | – |

More lines, main results first:

| EC50 [1] | total signal (cps) [3] | total signal (cps) [4] | Direct Inhibition of MMP13 (% decrease), 1000 nM (MMP-13) | Substance | also measured |
| --- | --- | --- | --- | --- | --- |
| – | 2000 cps | 2200 cps | – | LRP-1 peptide LA5 | EC50 [5]: 1080 nM |
| – | 6000 cps | – | 23% | LRP-1 peptide LA8-9 | EC50 [2]: 249 nM; % of the inhibitory activity of TIMP-3 + peptide compared to TIMP-3 alone, 16 nM [6]: 95%; % of the inhibitory activity of TIMP-3 + peptide compared to TIMP-3 alone, 80 nM [6]: 91%; % of the inhibitory activity of TIMP-3 + peptide compared to TIMP-3 alone, 400 nM [6]: 91%; % of the inhibitory activity of TIMP-3 + peptide compared to TIMP-3 alone, 2000 nM [6]: 97%; EC50 [7]: 181 nM; EC50 [8]: 173 nM; EC50 [9]: 113 nM |
| – | 3000 cps | – | 49% | LRP-1 peptide LA10 | – |
| 5000 nM | – | 1200 cps | -2% | LRP-1 peptide LA11-13 | – |
| 92 nM | – | 30000 cps | 29% | LRP-1 peptide LA21-31 | – |
| – | – | 2200 cps | – | LRP-1 peptide LA23 | – |
| 268 nM | 9000 cps | 6500 cps | – | LRP-1 peptide LA26-28 | – |
| 1000 nM and 300 nM | – | 1200 cps | 5% | LRP-1 peptide LA29-31 | % of the inhibitory activity of TIMP-3 + peptide compared to TIMP-3 alone, 16 nM [6]: 96%; % of the inhibitory activity of TIMP-3 + peptide compared to TIMP-3 alone, 80 nM [6]: 99%; % of the inhibitory activity of TIMP-3 + peptide compared to TIMP-3 alone, 400 nM [6]: 97%; % of the inhibitory activity of TIMP-3 + peptide compared to TIMP-3 alone, 2000 nM [6]: 96% |
